Experimental data reported in the supplement of paper PMC11316812.
± gives the standard deviation of the averaged measurements.

How the values were obtained:
[1] = system: MCF7; experiment: percentage of EdU-negative (G0-arrested) nuclei per well, 72 h; higher = more G0 arrest; details: reference: sequence is the full UniProt precursor, the tested protein was the secreted form or ectodomain
[2] = system: hTERT-HMEC; experiment: as above; details: reference: sequence is the full UniProt precursor, the tested protein was the secreted form or ectodomain
[3] = protein concentration 0.0225714 µM
[4] = protein concentration 0.225714 µM
[5] = protein concentration 0.03125 µM
[6] = protein concentration 0.3125 µM
[7] = protein concentration 0.0225 µM
[8] = protein concentration 0.02225 µM
[9] = protein concentration 0.2225 µM
[10] = protein concentration 0.015525 µM
[11] = protein concentration 0.15525 µM
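Further: secreted proteins added to cultured cells, EdU pulse at the end, nuclei found by Hoechst imaging, EdU status from nuclear versus surrounding ring intensity ratio, PBS as neutral control.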

Sequence	percentage of EdU-negative [1, 7] [%]	percentage of EdU-negative ([1]; protein concentration 0.225 µM) [%]	percentage of EdU-negative [2, 7] [%]	percentage of EdU-negative ([2]; protein concentration 0.225 µM) [%]	also measured
MPRLSLLLPLLLLLLLPLLPPLSPSLGIRDVGGRRPKCGPCRPEGCPAPAPCPAPGISALDECGCCARCLGAEGASCGGRAGGRCGPGLVCASQAAGAAPEGTGLCVCAQRGTVCGSDGRSYPSVCALRLRARHTPRAHPGHLHKARDGPCEFAPVVVVPPRSVHNVTGAQVGLSCEVRAVPTPVITWRKVTKSPEGTQALEELPGDHVNIAVQVRGGPSDHEATAWILINPLRKEDEGVYQCHAANMVGEAESHSTVTVLDLSKYRSFHFPAPDDRM [Q8WX77]					percentage of EdU-negative [1, 3]: 27.4 ± 0.89%; percentage of EdU-negative [1, 4]: 29.2 ± 0.86%; percentage of EdU-negative [2, 3]: 4.78 ± 0.086%; percentage of EdU-negative [2, 4]: 4.6 ± 1.4%
MGFQKFSPFLALSILVLLQAGSLHAAPFRSALESSPADPATLSEDEARLLLAALVQDYVQMKASELEQEQEREGSSLDSPRSKRCGNLSTCMLGTYTQDFNKFHTFPQTAIGVGAPGKKRDMSSDLERDHRPHVSMPQNAN					percentage of EdU-negative [1, 5]: 26.7 ± 2.5%; percentage of EdU-negative [1, 6]: 25.55 ± 0.19%; percentage of EdU-negative [2, 5]: 5.19 ± 0.42%; percentage of EdU-negative [2, 6]: 5.1 ± 0.19%
MDFPCLWLGLLLPLVAALDFNYHRQEGMEAFLKTVAQNYSSVTHLHSIGKSVKGRNLWVLVVGRFPKEHRIGIPEFKYVANMHGDETVGRELLLHLIDYLVTSDGKDPEITNLINSTRIHIMPSMNPDGFEAVKKPDCYYSIGRENYNQYDLNRNFPDAFEYNNVSRQPETVAVMKWLKTETFVLSANLHGGALVASYPFDNGVQATGALYSRSLTPDDDVFQYLAHTYASRNPNMKKGDECKNKMNFPNGVTNGYSWYPLQGGMQDYNYIWAQCFEITLELSCCKYPREEKLPSFWNNNKASLIEYIKQVHLGVKGQVFDQNGNPLPNVIVEVQDRKHICPYRTNKYGEYYLLLLPGSYIINVTVPGHDPHITKVIIPEKSQNFSALKKDILLPFQGQLDSIPVSNPSCPMIPLYRNLPDHSAATKPSLFLFLVSLLHIFFK	25.2 ± 4.8	26.7 ± 1.4	4.44 ± 0.072	4.97 ± 0.2	
MAPAQRPLLPLLLLLLPLPPPPFARAEDAARANSDRYAVYWNRSNPRFHAGAGDDGGGYTVEVSINDYLDIYCPHYGAPLPPAERMEHYVLYMVNGEGHASCDHRQRGFKRWECNRPAAPGGPLKFSEKFQLFTPFSLGFEFRPGHEYYYISATPPNAVDRPCLRLKVYVRPTNETLYEAPEPIFTSNNSCSSPGGCRLFLSTIPVLWTLLGS	25.4 ± 3	27.3 ± 0.45	5.69 ± 1.4	9.78 ± 0.54	
MPPFLLLTCLFITGTSVSPVALDPCSAYISLNEPWRNTDHQLDESQGPPLCDNHVNGEWYHFTGMAGDAMPTFCIPENHCGTHAPVWLNGSHPLEGDGIVQRQACASFNGNCCLWNTTVEVKACPGGYYVYRLTKPSVCFHVYCGHFYDICDEDCHGSCSDTSECTCAPGTVLGPDRQTCFDENECEQNNGGCSEICVNLKNSYRCECGVGRVLRSDGKTCEDVEGCHNNNGGCSHSCLGSEKGYQCECPRGLVLSEDNHTCQVPVLCKSNAIEVNIPRELVGGLELFLTNTSCRGVSNGTHVNILFSLKTCGTVVDVVNDKIVASNLVTGLPKQTPGSSGDFIIRTSKLLIPVTCEFPRLYTISEGYVPNLRNSPLEIMSRNHGIFPFTLEIFKDNEFEEPYREALPTLKLRDSLYFGIEPVVHVSGLESLVESCFATPTSKIDEVLKYYLIRDGCVSDDSVKQYTSRDHLAKHFQVPVFKFVGKDHKEVFLHCRVLVCGVLDERSRCAQGCHRRMRRGAGGEDSAGLQGQTLTGGPIRIDWED [Q8WWZ8]					percentage of EdU-negative ([1]; protein concentration 0.007 µM): 25.2 ± 1.8%; percentage of EdU-negative ([1]; protein concentration 0.07 µM): 27.3 ± 1.3%; percentage of EdU-negative ([2]; protein concentration 0.007 µM): 5.2 ± 0.59%; percentage of EdU-negative ([2]; protein concentration 0.07 µM): 5.67 ± 1.7%
MTPALTALLCLGLSLGPRTRVQAGPFPKPTLWAEPGSVISWGSPVTIWCQGSLEAQEYQLDKEGSPEPLDRNNPLEPKNKARFSIPSMTQHHAGRYRCHYYSSAGWSEPSDPLELVMTGFYNKPTLSALPSPVVASGGNMTLRCGSQKGYHHFVLMKEGEHQLPRTLDSQQLHSGGFQALFPVGPVTPSHRWRFTCYYYYTNTPRVWSHPSDPLEILPSGVSRKPSLLTLQGPVLAPGQSLTLQCGSDVGYDRFVLYKEGERDFLQRPGQQPQAGLSQANFTLGPVSPSHGGQYRCYGAHNLSSEWSAPSDPLNILMAGQIYDTVSLSAQPGPTVASGENVTLLCQSRGYFDTFLLTKEGAAHPPLRLRSMYGAHKYQAEFPMSPVTSAHAGTYRCYGSYSSNPHLLSFPSEPLELMVSGHSGGSSLPPTGPPSTPASHAKDYTVENLIRMGMAGLVLVFLGILLFEAQHSQRNPQDAAGR [Q6PI73]	22.6 ± 0.32	24.9 ± 4.2	5.69 ± 0.33	5.12 ± 0.84	
MGHPPLLPLLLLLHTCVPASWGLRCMQCKTNGDCRVEECALGQDLCRTTIVRLWEEGEELELVEKSCTHSEKTNRTLSYRTGLKITSLTEVVCGLDLCNQGNSGRAVTYSRSRYLECISCGSSDMSCERGRHQSLQCRSPEEQCLDVVTHWIQEGEEGRPKDDRHLRGCGYLPGCPGSNGFHNNDTFHFLKCCNTTKCNEGPILELENLPQNGRQCYSCKGNSTHGCSSEETFLIDCRGPMNQCLVATGTHEPKNQSYMVRGCATASMCQHAHLGDAFSMNHIDVSCCTKSGCNHPDLDVQYRSGAAPQPGPAHLSLTITLLMTARLWGGTLLWT					percentage of EdU-negative [1, 5]: 23.5 ± 1.9%; percentage of EdU-negative [1, 6]: 21 ± 1.2%; percentage of EdU-negative [2, 5]: 5.81 ± 0.25%; percentage of EdU-negative [2, 6]: 5.79 ± 0.076%
MSLSFLLLLFFSHLILSAWAHGEKRLAPKGQPGPAATDRNPRGSSSRQSSSSAMSSSSASSSPAASLGSQGSGLEQSSFQWSPSGRRTGSLYCRVGIGFHLQIYPDGKVNGSHEANMLSVLEIFAVSQGIVGIRGVFSNKFLAMSKKGKLHASAKFTDDCKFRERFQENSYNTYASAIHRTEKTGREWYVALNKRGKAKRGCSPRVKPQHISTHFLPRFKQSEQPELSFTVTVPEKKKPPSPIKPKIPLSAPRKNTNSVKYRLKFRFG					percentage of EdU-negative [1, 5]: 27.9 ± 2.3%; percentage of EdU-negative [1, 6]: 28 ± 0.77%; percentage of EdU-negative [2, 5]: 4.71 ± 0.44%; percentage of EdU-negative [2, 6]: 5.28 ± 0.53%
MLRLYVLVMGVSAFTLQPAAHTGAARSCRFRGRHYKREFRLEGEPVALRCPQVPYWLWASVSPRINLTWHKNDSARTVPGEEETRMWAQDGALWLLPALQEDSGTYVCTTRNASYCDKMSIELRVFENTDAFLPFISYPQILTLSTSGVLVCPDLSEFTRDKTDVKIQWYKDSLLLDKDNEKFLSVRGTTHLLVHDVALEDAGYYRCVLTFAHEGQQYNITRSIELRIKKKKEETIPVIISPLKTISASLGSRLTIPCKVFLGTGTPLTTMLWWTANDTHIESAYPGGRVTEGPRQEYSENNENYIEVPLIFDPVTREDLHMDFKCVVHNTLSFQTLRTTVKEASSTFSWGIVLAPLSLAFLVLGGIWMHRRCKHRTGKADGLTVLWPHHQDFQSYPK	25.1 ± 1.5	30.8 ± 0.31	5.09 ± 0.47	9.76 ± 1.8	
MAVRQWVIALALAALLVVDREVPVAAGKLPFSRMPICEHMVESPTCSQMSNLVCGTDGLTYTNECQLCLARIKTKQDIQIMKDGKC	26.2 ± 1.9	25.8 ± 0.45	5.06 ± 0.67	4.68 ± 0.28	
MVGKMWPVLWTLCAVRVTVDAISVETPQDVLRASQGKSVTLPCTYHTSTSSREGLIQWDKLLLTHTERVVIWPFSNKNYIHGELYKNRVSISNNAEQSDASITIDQLTMADNGTYECSVSLMSDLEGNTKSRVRLLVLVPPSKPECGIEGETIIGNNIQLTCQSKEGSPTPQYSWKRYNILNQEQPLAQPASGQPVSLKNISTDTSGYYICTSSNEEGTQFCNITVAVRSPSMNVALYVGIAVGVVAALIIIGIIIYCCCCRGKDDNTEDKEDARPNREAYEEPPEQLRELSREREEEDDYRQEEQRSTGRESPDHLDQ	26.33 ± 0.14	28.18 ± 0.27	4.72 ± 0.17	5.86 ± 0.41	
MWQIVFFTLSCDLVLAAAYNNFRKSMDSIGKKQYQVQHGSCSYTFLLPEMDNCRSSSSPYVSNAVQRDAPLEYDDSVQRLQVLENIMENNTQWLMKLENYIQDNMKKEMVEIQQNAVQNQTAVMIEIGTNLLNQTAEQTRKLTDVEAQVLNQTTRLELQLLEHSLSTNKLEKQILDQTSEINKLQDKNSFLEKKVLAMEDKHIIQLQSIKEEKDQLQVLVSKQNSIIEELEKKIVTATVNNSVLQKQQHDLMETVNNLLTMMSTSNSAKDPTVAKEEQISFRDCAEVFKSGHTTNGIYTLTFPNSTEEIKAYCDMEAGGGGWTIIQRREDGSVDFQRTWKEYKVGFGNPSGEYWLGNEFVSQLTNQQRYVLKIHLKDWEGNEAYSLYEHFYLSSEELNYRIHLKGLTGTAGKISSISQPGNDFSTKDGDNDKCICKCSQMLTGGWWFDACGPSNLNGMYYPQRQNTNKFNGIKWYYWKGSGYSLKATTMMIRPADF					percentage of EdU-negative [1, 8]: 27.2 ± 1.1%; percentage of EdU-negative [1, 9]: 27.32 ± 0.1%; percentage of EdU-negative [2, 8]: 4.54 ± 0.087%; percentage of EdU-negative [2, 9]: 7.44 ± 0.6%
MVRMVPVLLSLLLLLGPAVPQENQDGRYSLTYIYTGLSKHVEDVPAFQALGSLNDLQFFRYNSKDRKSQPMGLWRQVEGMEDWKQDSQLQKAREDIFMETLKDIVEYYNDSNGSHVLQGRFGCEIENNRSSGAFWKYYYDGKDYIEFNKEIPAWVPFDPAAQITKQKWEAEPVYVQRAKAYLEEECPATLRKYLKYSKNILDRQDPPSVVVTSHQAPGEKKKLKCLAYDFYPGKIDVHWTRAGEVQEPELRGDVLHNGNGTYQSWVVVAVPPQDTAPYSCHVQHSSLAQPLVVPWEAS	26.1 ± 2	26.1 ± 1.9	5.49 ± 0.45	5.19 ± 0.89	
MVAPGLVLGLVLPLILWADRSAGIGFRFASYINNDMVLQKEPAGAVIWGFGTPGATVTVTLRQGQETIMKKVTSVKAHSDTWMVVLDPMKPGGPFEVMAQQTLEKINFTLRVHDVLFGDVWLCSGQSNMQMTVLQIFNATRELSNTAAYQSVRILSVSPIQAEQELEDLVAVDLQWSKPTSENLGHGYFKYMSAVCWLFGRHLYDTLQYPIGLIASSWGGTPIEAWSSGRSLKACGVPKQGSIPYDSVTGPSKHSVLWNAMIHPLCNMTLKGVVWYQGESNINYNTDLYNCTFPALIEDWRETFHRGSQGQTERFFPFGLVQLSSDLSKKSSDDGFPQIRWHQTADFGYVPNPKMPNTFMAVAMDLCDRDSPFGSIHPRDKQTVAYRLHLGARALAYGEKNLTFEGPLPEKIELLAHKGLLNLTYYQQIQVQKKDNKIFEISCCSDHRCKWLPASMNTVSTQSLTLAIDSCHGTVVALRYAWTTWPCEYKQCPLYHPSSALPAPPFIAFITDQGPGHQSNVAK [Q9HAT2]	24.9 ± 0.68	24.8 ± 0.63	5.13 ± 1	7.82 ± 1.7	
MQCWQQPFLRFLQQPFFLATASLAGSSSSFNVLIPKRDEDGDGEGPGDVTAGVSRAAGSPSGWEAPWVQQPRCCRRATPVCCAGQGPPRSLQQGGSEVLLGQLCSPEPDWLPSSGPKVAKQVFQVAAELLQHPEHFVPSSVPEGCVHKPGSTCDGSLKGRAYPSCVPKRDPEHSREESHPLSG [Q6UXR6]	26.15 ± 0.12	26.1 ± 0.63	4.87 ± 0.51	4.95 ± 1	
MRPQELPRLAFPLLLLLLLLLPPPPCPAHSATRFDPTWESLDARQLPAWFDQAKFGIFIHWGVFSVPSFGSEWFWWYWQKEKIPKYVEFMKDNYPPSFKYEDFGPLFTAKFFNANQWADIFQASGAKYIVLTSKHHEGFTLWGSEYSWNWNAIDEGPKRDIVKELEVAIRNRTDLRFGLYYSLFEWFHPLFLEDESSSFHKRQFPVSKTLPELYELVNNYQPEVLWSDGDGGAPDQYWNSTGFLAWLYNESPVRGTVVTNDRWGAGSICKHGGFYTCSDRYNPGHLLPHKWENCMTIDKLSWGYRREAGISDYLTIEELVKQLVETVSCGGNLLMNIGPTLDGTISVVFEERLRQMGSWLKVNGEAIYETHTWRSQNDTVTPDVWYTSKPKEKLVYAIFLKWPTSGQLFLGHPKAILGATEVKLLGHGQPLNWISLEQNGIMVELPQLTIHQMPCKWGWALALTNVI [Q9BTY2]					percentage of EdU-negative [1, 10]: 22.7 ± 0.71%; percentage of EdU-negative [1, 11]: 27.2 ± 2.1%; percentage of EdU-negative [2, 10]: 4.67 ± 0.2%; percentage of EdU-negative [2, 11]: 5.55 ± 0.98%
